Reference: patent publication US20110009310A1 (CELECURE, published 2011)

Legend:
[1] = molecular target: VEGFR1 (isolated recombinant receptor) (UniProt P17948 27-756, limits assumed); assay: modified ELISA; CD44-3MUT coated on wells, recombinant VEGFR1 added, detected with anti-VEGFR antibody
Procedure: (§1) Modified ELISA tests to evaluate the binding of VEGFR2 (panel A) and VEGFR1 (panel B) to immobilized CD44-3MUT. […] Nonspecific binding was blocked with 2.5% non-fat dry milk solution. VEGFR1 and VEGFR2 were added into the coated wells and incubated for 1 h at RT. VEGFR binding was detected with anti-VEGFR antibodies
(§2) We have developed a modified ELISA test (to detect CD44-3MUT binding specificity to isolated recombinant receptors VEGFR1 and VEGFR2).

[2] = molecular target: VEGFR2 (isolated recombinant receptor) (UniProt P35968 20-764, limits assumed); assay: modified ELISA; CD44-3MUT coated on wells, recombinant VEGFR2 added, detected with anti-VEGFR antibody
Chain of VEGFR2 (isolated recombinant receptor) (P35968 20-764 limits assumed): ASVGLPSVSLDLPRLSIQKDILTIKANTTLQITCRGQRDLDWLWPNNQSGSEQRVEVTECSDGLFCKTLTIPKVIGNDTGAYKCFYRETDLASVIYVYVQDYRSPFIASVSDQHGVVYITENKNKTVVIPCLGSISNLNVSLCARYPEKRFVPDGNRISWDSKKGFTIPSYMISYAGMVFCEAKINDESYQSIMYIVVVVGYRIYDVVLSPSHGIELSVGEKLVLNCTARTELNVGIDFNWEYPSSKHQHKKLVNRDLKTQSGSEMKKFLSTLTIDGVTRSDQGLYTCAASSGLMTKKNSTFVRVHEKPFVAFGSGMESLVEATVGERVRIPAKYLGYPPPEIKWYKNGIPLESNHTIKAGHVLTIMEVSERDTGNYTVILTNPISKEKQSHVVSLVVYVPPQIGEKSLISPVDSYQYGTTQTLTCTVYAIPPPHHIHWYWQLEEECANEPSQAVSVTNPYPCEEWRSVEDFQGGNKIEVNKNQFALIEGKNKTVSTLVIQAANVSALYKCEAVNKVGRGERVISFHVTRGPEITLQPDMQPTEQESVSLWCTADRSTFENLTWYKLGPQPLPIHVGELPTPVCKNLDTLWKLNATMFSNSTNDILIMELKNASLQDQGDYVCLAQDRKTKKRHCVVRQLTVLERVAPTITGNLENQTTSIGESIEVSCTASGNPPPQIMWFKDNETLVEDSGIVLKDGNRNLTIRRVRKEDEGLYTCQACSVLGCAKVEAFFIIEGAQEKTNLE
Procedure: as §1, §2

Chain of VEGFR1 (isolated recombinant receptor) (P17948 27-756 limits assumed): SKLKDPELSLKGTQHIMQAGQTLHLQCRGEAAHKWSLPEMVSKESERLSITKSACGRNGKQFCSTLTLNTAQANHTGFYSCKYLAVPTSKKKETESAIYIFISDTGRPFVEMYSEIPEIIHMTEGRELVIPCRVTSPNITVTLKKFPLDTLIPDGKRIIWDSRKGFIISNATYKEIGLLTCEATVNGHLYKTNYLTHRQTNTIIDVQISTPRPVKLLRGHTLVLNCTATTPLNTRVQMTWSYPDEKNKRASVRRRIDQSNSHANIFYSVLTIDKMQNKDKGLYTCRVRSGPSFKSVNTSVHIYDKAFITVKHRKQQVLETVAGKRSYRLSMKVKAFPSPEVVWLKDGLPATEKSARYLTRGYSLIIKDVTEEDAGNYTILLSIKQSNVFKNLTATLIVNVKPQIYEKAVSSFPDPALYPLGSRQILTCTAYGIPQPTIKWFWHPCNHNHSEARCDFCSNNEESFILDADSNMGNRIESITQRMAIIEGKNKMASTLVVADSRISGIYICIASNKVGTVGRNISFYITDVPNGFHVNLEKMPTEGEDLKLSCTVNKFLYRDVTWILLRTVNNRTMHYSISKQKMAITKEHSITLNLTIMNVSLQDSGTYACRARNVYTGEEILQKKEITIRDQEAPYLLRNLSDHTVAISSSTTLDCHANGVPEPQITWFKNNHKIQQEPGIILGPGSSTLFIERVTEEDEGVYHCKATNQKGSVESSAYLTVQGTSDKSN

binding result [1]: no binding | binding result [2]: no binding
B1: CD44HABD^R41AR78SY79S (non-HA-binding triple mutant of the human CD44 hyaluronic acid binding domain) (other)
chain: QIDLNMTCRFAGVFHVEKNGAYSISRTEAADLCKAFNSTLPTMAQMEKALSIGFETCSSGFIEGHVVIPRIHPNSICAANNTGVYILTSNTSQYDTYCFNASAPPEEDCTSV
notes: Made in E. coli, non-glycosylated; also called CD44-3MUT; 3MUT
